Measurements: patent US20130131320A1 (published 2013)

Assays:
[1] = target: T1, soluble EGFR (human epithelial cell growth factor receptor 1, Her1) (human, UniProt P00533 25-645); experiment: SPR
[2] = target: T1, soluble EGFR (human epithelial cell …); experiment: ITC
[3] = target: T1, soluble EGFR (human epithelial cell …); experiment: SPR; remark: listed apart in the source

Row | Ka [1] | Ka [2] | koff [3] | Binder
1 | 3.5e+08 M⁻¹ | 4.1e+09 M⁻¹ | 0.00085 s⁻¹ | h528 Fv comprising mutant VL LRL (other) VH: QVQLVQSGAEVKKPGASVKVSCKASGYTFTSYWMHWVRQAPGQGLEWMGNIYPGSGGTNYAEKFKNRVTMTRDTSISTAYMELSRLRSDDTAVYYCARSGGPYFFDYWGQGTLVTVSS VL: not shown
2 | 4e+07 M⁻¹ | 2.1e+07 M⁻¹ | 0.006 s⁻¹ | h528Fv WT (other) VH: QVQLVQSGAEVKKPGASVKVSCKASGYTFTSYWMHWVRQAPGQGLEWMGNIYPGSGGTNYAEKFKNRVTMTRDTSISTAYMELSRLRSDDTAVYYCARSGGPYFFDYWGQGTLVTVSS VL: DIVMTQSPLSLPVTPGEPASISCRSSQNIVHNNGITYLEWYLQKPGQSPQLLIYKVSDRFSGVPDRFSGSGSGTDFTLKISRVEAEDVGVYYCFQGSHIPPTFGQGTKVEIKR
3 | 6.8e+08 M⁻¹ | 1.05e+09 M⁻¹ | 0.00078 s⁻¹ | h528 Fv comprising mutant VL LRS (other) VH: QVQLVQSGAEVKKPGASVKVSCKASGYTFTSYWMHWVRQAPGQGLEWMGNIYPGSGGTNYAEKFKNRVTMTRDTSISTAYMELSRLRSDDTAVYYCARSGGPYFFDYWGQGTLVTVSS VL: DIVMTQSPLSLPVTPGEPASISCRSSQNIVHNNGITYLEWYLQKPGQSPQLLIYLVSRRSSGVPDRFSGSGSGTDFTLKISRVEAEDVGVYYCFQGSHIPPTFGQGTKVEIKR
